Data reported in US7645449B2, “Sensitizing cells for apoptosis by selectively blocking cytokines” (priority 2003, dated 2010).

Experiments:
Type in all cases: cell-based, human
[1] = system: LNCaP prostate cancer cells; assay: MTS viability of LNCaP cells: chemotherapy- and anti-CD95-induced apoptosis
Procedure: Human LNCAP prostate cancer cell line and human MDA-MB-231 breast cancer cell line were obtained from the American Type Culture Collection (ATCC, Manassas, Va.). Human RT112 bladder carcinoma cell line was kindly provided by Dr. M. Cippitelli (Regina Elena Cancer Institute, Rome, Italy). Cells were grown in RPMI 1640 (Life Technologies Inc., Grand Island, N.Y.) containing 10% heat inactivated fetal bovine serum supplemented with L-Glutamine 2 mM and 100 units/ml Penicillin-Streptomycin. Cells were kept in 5% CO2 atmosphere and routinely passaged when 80-85% confluent. […]
Cell viability was determined using the CellTiter 96® AQueous One Solution Cell Proliferation Assay (Promega, Madison, Wis.), according to the manufacturer's instructions. The assay is based on reduction of 3-(4,5-dimethylthiazol-2-yl)-5-(3-carboxymethoxyphenyl)-2-(4-sulfophenyl)-2H-tetrazolium, inner salt (MTS) to a colored formazan product that is measured spectrophotometrically. […] After 3 hours of incubation at 37° C. with the MTS reagent, the plates were read on a Multilabel Counter (Victor2, Wallac, Perkin-Ehmer Inc., Norwalk, Conn.) and dye absorbance was measured at 490 nm.
The percentage of apoptotic cells was derived from the percentage of viable cells that was directly calculated from the values of the MTS assay.

[2] = system: Bcl-XL and cFlip/FLAME-1 in LNCap prostate cancer cells; assay: Immunoblot of Bcl-XL and cFlip/FLAME-1 in LNCaP cells; conditions: following IL-4 treatment
Procedure: (§1) The observation that prostate and breast tumor cells treated with IL-4 display a reduced sensitivity to death induced by CD95 and chemotherapeutic drugs led us to investigate whether this cytokine would influence the expression of apoptosis regulatory genes. […] Therefore, IL-4-mediated increased survival in bladder, prostate and breast cancer cells is associated with upregulation of anti-apoptotic proteins.
(§2) Cell pellets were washed twice with cold PBS and lysed on ice for 30 minutes with 1% NP40 lysis buffer (20 mM Tris-HCl pH 7.2, 200 mM NaCl, 1% NP40) in the presence of 1 mM phenylmethylsulphonyl fluoride (PMSF) and 2 μg/ml each of aprotinin, leupeptin and pepstatin. Cell debris was removed by centrifugation at 13,000 rpm for 10 minutes at 4° C. Lysate concentration was determined using the Bio-Rad protein assay (Bio-Rad Laboratories, Richmond, Calif.). Aliquots of cell extracts containing 30 μg of total protein were resolved on 10% or 12% SDS-PAGE and transferred to a Hybond-C extra nitrocellulose membrane (Amersham Pharmacia Biotech, Piscataway, N.J.). […]

[3] = system: cFlip/FLAME-1 in MDA-MB-231 cells; assay: Immunoblot of Bcl-XL and cFlip/FLAME-1 in MDA-MB-231 cells; conditions: following IL-4 treatment
Procedure: as §1, §2

[4] = system: freshly isolated normal breast epithelial cells; assay: Bcl-XL expression and chemotherapy-induced apoptosis in normal breast epithelial cells exposed to IL-4
Excerpt: To confirm that IL-4-induced upregulation of Bcl-XL is able to protect epithelial breast cells from apoptosis, freshly isolated normal breast epithelial cells were exposed to IL-4 and analyzed Bcl-XL expression and sensitivity to a panel of chemotherapeutic drugs commonly used to treat breast cancer. […] To confirm that in vivo exposure to IL-4 is responsible for high Bcl-XL expression and resistance to chemotherapy in breast cancer, Bcl-XL expression and sensitivity to apoptosis of primary breast carcinoma cells cultivated in the presence or absence of IL-4 was measured Freshly isolated breast cancer cells expressed high levels of Bcl-XL and were scarcely sensitive to chemotherapeutic drugs (FIGS. 14C and D). […] Thus, in vivo IL-4 production promotes the survival of breast cancer cells. […]
Cell pellets were washed twice with cold PBS and lysed on ice for 30 minutes with 1% NP40 lysis buffer (20 mM Tris-HCl pH 7.2, 200 mM NaCl, 1% NP40) in the presence of 1 mM phenylmethylsulphonyl fluoride (PMSF) and 2 μg/ml each of aprotinin, leupeptin and pepstatin. […] Lysate concentration was determined using the Bio-Rad protein assay (Bio-Rad Laboratories, Richmond, Calif.). […]

B1: IL-4: human recombinant IL-4 (protein, UniProt P05112 25-153, looked up)
Interleukin-4: HKCDITLQEIIKTLNSLTEQKTLCTELTVTDIFAASKNTTEKETFCRAATVLRQFYSHHEKDTRCLGATAQQFHRHKQLIRFLKRLDRNLWGLAGLNSCPVKEANQSTLENFLERLKTIMREKYSKCSS
anti-CD95-induced apoptosis of LNCaP cells ([1]; cytokine pretreatment, 30 ng/ml anti-CD95 agonistic antibody): greatly reduced anti-CD95-induced apoptosis
drug-induced death of LNCaP cells ([1]; two days cytokine pretreatment (20 ng/ml), 300 ng/ml cisplatin or 1 μM vincristine): significantly protected from drug-induced death
levels of Bcl-XL and cFlip/FLAME-1 in LNCap cells [2]: considerably upregulated
cFlip/FLAME-1 level in MDA-MB-231 cells [3]: only a modest increase
apoptosis of normal breast epithelial cells induced by cisplatin, doxorubicin and taxol ([4]; IL-4 pretreatment): significantly protected
Bcl-XL expression in normal breast epithelial cells ([4]; IL-4 treatment): considerably increased the expression of Bcl-XL
